Target: mare1_human MAPRE1 (UniProt Q15691)
Sequence (Q15691 whole entry): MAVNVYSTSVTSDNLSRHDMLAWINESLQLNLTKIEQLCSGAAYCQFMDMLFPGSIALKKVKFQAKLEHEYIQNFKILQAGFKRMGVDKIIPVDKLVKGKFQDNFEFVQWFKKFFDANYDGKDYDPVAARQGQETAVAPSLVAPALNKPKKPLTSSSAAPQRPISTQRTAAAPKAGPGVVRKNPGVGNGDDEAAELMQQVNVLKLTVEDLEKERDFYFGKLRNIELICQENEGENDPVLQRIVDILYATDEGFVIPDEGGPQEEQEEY

| effect of a mutation on the interaction | Substance |
| --- | --- |
| decreasing interaction strength | Desmoplakin (Homo sapiens), P15924-2 I533T |
| decreasing interaction strength | Desmoplakin (Homo sapiens), P15924-2 N458Y |

— IntAct's records for PubMed 25225338
